Assay results: patent publication US20240382677A1 (Regeneron, published 2024)

Tests used:
[1] = molecular target: T1, recombinant cynomolgus monkey PD-1 expressed with a C-terminal myc-myc-hexahistidine tag (cynomolgus monkey); test: SPR Biacore, mAb captured, 37 C
T1 construct: also called MfPD-1-MMH; MIPD-1-MMH
T1 chain: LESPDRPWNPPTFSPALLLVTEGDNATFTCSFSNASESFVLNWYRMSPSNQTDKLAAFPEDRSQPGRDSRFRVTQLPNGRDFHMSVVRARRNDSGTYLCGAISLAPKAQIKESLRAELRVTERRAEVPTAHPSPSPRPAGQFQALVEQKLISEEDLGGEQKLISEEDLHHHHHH

[2] = molecular target: T1, recombinant cynomolgus monkey PD-1 …; test: SPR Biacore, mAb captured, 25 C
[3] = molecular target: T2, human PD-1 dimer (human PD-1-mFc or human PD-1-hFc) (human, Fc-mediated homodimer; one copy of the chain is given.); test: SPR Biacore, mAb captured, 25 C
T2 construct: also called hPD-1-mFc; hPD1-hFc; not shown: The C-terminal Fc tag
T2 sequence (chain, as listed by the source limits assumed): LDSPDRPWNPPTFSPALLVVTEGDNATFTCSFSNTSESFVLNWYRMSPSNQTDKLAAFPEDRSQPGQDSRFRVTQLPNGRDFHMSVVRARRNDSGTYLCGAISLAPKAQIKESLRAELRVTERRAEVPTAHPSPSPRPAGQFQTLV

[4] = molecular target: T3, monkey PD-1 with mFc (monkey PD-1-mFc) (monkey); test: SPR 37C, mAb captured;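 note: Real-time binding of antigen to purified anti-PD-1 antibodies, measured by surface plasmon resonance on a Biacore 4000 or T200 instrument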
T3 construct: also called monkey PD-1 dimer; MfPD-1 dimer
T3 chain: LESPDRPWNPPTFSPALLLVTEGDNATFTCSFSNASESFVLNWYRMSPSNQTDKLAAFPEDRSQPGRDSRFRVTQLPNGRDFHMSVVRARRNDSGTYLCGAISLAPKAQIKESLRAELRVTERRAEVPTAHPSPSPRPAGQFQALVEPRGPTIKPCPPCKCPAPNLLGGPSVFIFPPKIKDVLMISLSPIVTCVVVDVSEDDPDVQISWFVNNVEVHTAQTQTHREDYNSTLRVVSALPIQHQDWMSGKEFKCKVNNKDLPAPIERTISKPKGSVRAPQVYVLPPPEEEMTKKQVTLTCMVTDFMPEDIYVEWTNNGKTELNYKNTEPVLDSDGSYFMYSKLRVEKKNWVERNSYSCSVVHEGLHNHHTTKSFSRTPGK

[5] = molecular target: recombinant human PD-1 expressed with a C-terminal human IgG1 Fc tag (hPD-1-hFc) (human); test: SPR Biacore 3000, captured hPD-L1-mFc
Sequence of recombinant human PD-1 expressed with a C-terminal human IgG1 Fc tag (hPD-1-hFc) (human) (chain, as listed by the source limits assumed): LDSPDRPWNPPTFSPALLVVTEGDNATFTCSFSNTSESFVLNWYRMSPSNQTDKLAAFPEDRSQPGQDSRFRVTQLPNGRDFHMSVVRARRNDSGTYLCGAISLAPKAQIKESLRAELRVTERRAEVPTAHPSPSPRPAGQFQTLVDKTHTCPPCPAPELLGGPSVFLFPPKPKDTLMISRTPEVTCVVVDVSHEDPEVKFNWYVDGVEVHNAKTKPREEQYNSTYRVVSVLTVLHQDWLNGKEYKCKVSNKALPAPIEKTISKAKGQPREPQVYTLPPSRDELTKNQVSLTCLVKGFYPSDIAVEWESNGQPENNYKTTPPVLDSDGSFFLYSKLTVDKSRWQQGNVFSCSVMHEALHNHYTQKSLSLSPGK

[6] = molecular target: T3, monkey PD-1 with mFc (monkey PD-1-mFc); test: SPR 25C, mAb captured
[7] = molecular target: T4, recombinant human PD-1 expressed with a C-terminal myc-myc-hexahistidine tag (human); test: SPR Biacore, mAb captured, 37 C
T4 construct: monomeric reagent; also called hPD-1-MMH; human PD-1-MMH

[8] = molecular target: T5, recombinant human PD-1 dimer expressed with a C-terminal mouse IgG2a Fc tag (hPD-1-mFc) (human); test: competition ELISA, 1.5 nM hPD-1-mFc, coated hPD-L1-hFc
T5 construct: also called human PD-1-mFc

[9] = molecular target: T2, human PD-1 dimer (human PD-1-mFc or …); test: SPR Biacore, mAb captured, 37 C
[10] = molecular target: T5, recombinant human PD-1 dimer expressed …; test: competition ELISA, 1.5 nM hPD-1-mFc, coated hPD-L1-hFc; * below assay bottom
[11] = molecular target: T5, recombinant human PD-1 dimer expressed …; test: BLI Octet Red 96, captured hPD-L1-hFc
[12] = molecular target: PD-1 chimera hPD1-hCD300a on Jurkat/AP1-Luc cells (human); test: cell-based or functional assay
[13] = molecular target: T6, polyclonal rabbit anti-mouse antibody (GE Catalog #BR-1008-38) coupled to the CM5 Biacore sensor surface (rabbit); test: SPR Biacore 3000, antibody alone over the anti-mouse Fc capture surface of the hPD-L1-mFc assay (background control)
T6 construct: also called anti-mouse Fc capture surface

B1: H2aM7788N (antibody, mouse IgG2a, V domains shown)
VH: EVQLVESGGGLVQPGGSLRLSCGASGFTFRNYDMHWVRQITGKGLEWVSAIGSAGDTYYPDSVKGRFTISRENAKNSLYLQMNSLRVGDTAVYYCTRDIHCSSTRCYGMDVWGQGTTVTVSS
VL: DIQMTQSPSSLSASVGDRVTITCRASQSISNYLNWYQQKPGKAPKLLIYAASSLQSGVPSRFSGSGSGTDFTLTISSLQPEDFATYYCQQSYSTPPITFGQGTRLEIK
notes: human variable regions with mouse IgG2a Fc (H2aM prefix); also called H2M7788N; H2aM7788M
t½ [1]: 3.6 min | kon [2]: 8530 M⁻¹ s⁻¹

B2: H4H7798N (antibody, human IgG4, V domains shown)
VH: EVQLLESGGVLVQPGGSLRLSCAASGFTFSNFGMTWVRQAPGKGLEWVSGISGGGRDTYFADSVKGRFTISRDNSKNTLYLQMNSLKGEDTAVYYCVKWGNIYFDYWGQGTLVTVSS
VL: DIQMTQSPSSLSASVGDSITITCRASLSINTFLNWYQQKPGKAPNLLIYAASSLHGGVPSRFSGSGSGTDFTLTIRTLQPEDFATYYCQQSSNTPFTFGPGTVVDFRR
notes: human IgG4 Fc; also called M4H7798N; HAH7798N
Kd [2]: 3.8 nM

B3: H4xH9008P (antibody, V domains shown)
VH: EVQLVESGGGLVRPGGSLRLSCAASGFTFSTYAMAWVRQTPGKGLEGVSAIGGSGDSTYYVDSVKGRFTISRDNSKSTLFLQMNSLRAEDTAVYYCVKVRNYDGSFDIWGQGTMVTVSS
VL: not shown
notes: human IgG4 Fc with 2 or more amino acid changes as in US20100331527 (H4xH prefix); also called H4x19008P
Kd [3]: 0.786 nM

B4: H4xH9120P2 (antibody, V domains shown)
VH: QVQLVQSGAEVKRPGASVKVSCKASGYTFTSFYMYWVRQAPGQGLEWMGIINPSDGSTSNAQKFQGRVTMTRDTSTSTVYMELSSLRSEDTAVYYCARRVAGDIFDIWGQGTMVTVSS
VL: not shown
notes: human IgG4 Fc with 2 or more amino acid changes (US20100331527)
100 nM Monkey PD-1-mFc Bound [4]: 46 RU | t½ [4]: 23 min | binding of the mixture of 100 nM hPD-1-hFc and 500 nM antibody [5]: 0 RU | 100 nM Monkey PD-1-mFc Bound [6]: 52 RU | t½ [6]: 104 min

B5: H4xH9120P2 (antibody, V domains shown)
VH: QVQLVQSGAEVKRPGASVKVSCKASGYTFTSFYMYWVRQAPGQGLEWMGIINPSDGSTSNAQKFQGRVTMTRDTSTSTVYMELSSLRSEDTAVYYCARRVAGDIFDIWGQGTMVTVSS
VL: not shown
notes: human IgG4 Fc with 2 or more amino acid changes as in US20100331527 (H4xH prefix)
kon [7]: 68600 M⁻¹ s⁻¹

B6: H2aM7796N (antibody, mouse IgG2a, V domains shown)
VH: QVQLVESGGGVVQPGRSLRLSCAASGFTFSSYGMHWVRQAPGKGLEWVAIIWSDGDSEYNLDSVKGRFTISRDNSKNTLYLQMNSLRVEDSAVYYCARDRDLEDIWGQGTMVTVSS
VL: DIQMTQSPSSLSASVGDRVTITCRASQGIRNDLGWYQQKPGKAPKRLIYAASNLQSGVPSRFSGSGSGTEFTLTISSLQPEDFATYYCLQHNSYPLTFGGGTKVEIK
notes: mouse IgG2a Fc; also called H2M7796N
binding result [2]: no binding (tested: 200 nM)

B7: H4H9019P (antibody, human IgG4, V domains shown)
VH: EVQLVESGGGVVRPGGSLRLSCAASGFTFDDYGMSWVRQVPGKGLEWVSGISWNDGKTVYAESVKGRFIISRDNAKNSLYLEMNSLRAEDTALYYCARDWQYLIERYFDYWGQGTLVTVSS
VL: not shown
notes: human IgG4 Fc; also called H4xH9019P
100 nM Monkey PD-1-mFc Bound [4]: 36 RU | t½ [4]: 45 min | binding of the mixture of 100 nM hPD-1-hFc and 500 nM antibody [5]: -1 RU | 100 nM Monkey PD-1-mFc Bound [6]: 31 RU | t½ [6]: 129 min | % blocking at 200 nM antibody [8]: 96%

B8: H4xH9128P2 (antibody, V domains shown)
VH: QVQLQESGPGLVKPSETLSLTCTVSGGSISSYHWNWIRQSPGKGLEWIGYIYYIGSTDYNPSLESRVTISVDTSKNQFSLKLSSVTAADTAVYYCARVPVGATGASDVWGQGTMVTVSS
VL: not shown
notes: as for B4
100 nM Monkey PD-1-mFc Bound [4]: 60 RU | t½ [4]: 14 min | binding of the mixture of 100 nM hPD-1-hFc and 500 nM antibody [5]: -5 RU | 100 nM Monkey PD-1-mFc Bound [6]: 64 RU | t½ [6]: 94 min

B9: H4xH9119P2 (antibody, V domains shown)
VH: EVQLVESGGGLVQPGRSLRLSCAASGFTFEDYAMHWVRQAPGKGLEWVSGIGWSNVKIGYADSVKGRFTISRDNVRNSLYLQMNSLRTEDTAFYYCVKAYTSMLTLYFDYWGQGTLVTVSS
VL: not shown
notes: as for B4
100 nM Monkey PD-1-mFc Bound [4]: 40 RU | binding of the mixture of 100 nM hPD-1-hFc and 500 nM antibody [5]: -5 RU | 100 nM Monkey PD-1-mFc Bound [6]: 83 RU | t½ [6]: 67 min

B10: H4xH9119P2 (antibody, V domains shown)
VH: EVQLVESGGGLVQPGRSLRLSCAASGFTFEDYAMHWVRQAPGKGLEWVSGIGWSNVKIGYADSVKGRFTISRDNVRNSLYLQMNSLRTEDTAFYYCVKAYTSMLTLYFDYWGQGTLVTVSS
VL: not shown
notes: as for B5
koff [3]: 0.000152 s⁻¹

B11: H2aM7794N (antibody, V domains shown)
VH: QLQLQESGPDLVKPSDTLSLTCTVSDDSISSTTYYWAWIRQPPGKGLEWIGSMSYNGNNYYNPSLKSRVAISAGTSQKQFSLKLTSVTAADTAVYHCARHLGYNGNWYPFDFWGQGILVTVSS
VL: not shown
notes: human variable regions with mouse IgG2a Fc (H2aM prefix); also called H2M7794N
t½ [9]: 65 min

B12: H4xH9034P (antibody, V domains shown)
VH: EVQLVESGGGVVRPGGSLRLSCTASGFTFDDYGMSWVRQAPGKGLEWISGIGWTGGRSSYADSVRGRFTISRDNAKNSLYLQMNSLGAEDTALYYCARDRQWLVQWYFDYWGQGTLVTVSS
VL: not shown
100 nM Monkey PD-1-mFc Bound [4]: 81 RU | t½ [4]: 15 min | IC50 [10]: < 0.75 nM | 100 nM Monkey PD-1-mFc Bound [6]: 95 RU | t½ [6]: 70 min

B13: H4xH9034P (antibody, V domains shown)
VH: EVQLVESGGGVVRPGGSLRLSCTASGFTFDDYGMSWVRQAPGKGLEWISGIGWTGGRSSYADSVRGRFTISRDNAKNSLYLQMNSLGAEDTALYYCARDRQWLVQWYFDYWGQGTLVTVSS
VL: not shown
notes: human IgG4 Fc with 2 or more amino acid changes as in US20100331527 (H4xH prefix); also called H4xH9034P2; H4xH8034P2
t½ [1]: 0.6 min

B14: H4xH9145P2 (antibody, V domains shown)
VH: QVQLVESGGGVVQPGRSLRLSCSASGFTFSAYAMHWVRQAPGKGLEWVAAISYGGSDKYYADSVKGRFTISRDNSKNTLYLQMNSLRTDDTAVYYCAKSAHWNFFFDYWGQGTLVTVSS
VL: not shown
notes: as for B4
100 nM Monkey PD-1-mFc Bound [4]: 94 RU | t½ [4]: 19 min | binding of the mixture of 100 nM hPD-1-hFc and 500 nM antibody [5]: -6 RU | 100 nM Monkey PD-1-mFc Bound [6]: 84 RU | t½ [6]: 77 min

B15: H2aM7780N (antibody, mouse IgG2a, V domains shown)
VH: QVQLVESGGGVVQSGRSLRLSCAASGFTFSSYGMHWVRQAPGKGLEWVAVIWYDGSNIYYSDSVKGRFTISRANSKNTLYLQMNSLRAEDTAVYYCARPGHWNYFFEYWGQGTLVTVSS
VL: DIQMTQSPSSLSASVGDRVTITCRASQSINNYLNWYQQKPGKAPKLLIYTASSLQSGVPSRFSGSGSGTDFTLTISSLQPEDFATYYCQQSYSTPPLTFGQGTQLEIK
notes: mouse IgG2a Fc; human variable regions; also called H2M7780N
binding of the mixture of 100 nM hPD-1-mFc and 500 nM antibody [11]: -0.01 nm | Concentration (M) of Antibody at 150% activation [12]: 6.62e-09 M

B16: H4xH9135P2 (antibody, V domains shown)
VH: EVQLVESGGSVVRPGGSLRLSCVVSGFTFEDYGLSWVRQIPGKGLEWVSGISWTGGNTGYADSVKGRFTISRDNAKNSLYLQMNSLRAEDTALYHCTRDRQWLMQWYFDYWGQGTLVTVSS
VL: not shown
notes: as for B4
100 nM Monkey PD-1-mFc Bound [4]: 52 RU | t½ [4]: 15 min | binding of the mixture of 100 nM hPD-1-hFc and 500 nM antibody [5]: -3 RU | 100 nM Monkey PD-1-mFc Bound [6]: 74 RU | t½ [6]: 81 min

B17: H4H9048P2 (antibody, human IgG4 S228P, kappa, V domains shown)
VH: QVQLVQSGAEVKRPGSSVKVSCKVSGVTFRNFAIIWVRQAPGQGLEWMGGIIPFFSAANYAQSFQGRVTITPDESTSTAFMELASLRSEDTAVYYCAREGERGHTYGFDYWGQGTLVTVSS
VL: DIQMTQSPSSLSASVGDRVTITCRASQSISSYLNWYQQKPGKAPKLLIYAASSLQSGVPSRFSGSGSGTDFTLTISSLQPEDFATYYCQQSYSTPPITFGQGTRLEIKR
notes: human IgG4 Fc
% Blocking [5]: 91% | binding of the mixture of 100 nM hPD-1-hFc and 500 nM antibody [5]: 9 RU | 500 nM of anti-PD-1 monoclonal antibody (RU) [13]: -7 RU
